The record followed here is PMC11820797, “Rapid Detection of Alpha-Fetoprotein (AFP) with Lateral Flow Aptasensor”.

The data set deals with T1, alpha-fetoprotein (AFP) (UniProt P02771 19-609).
T1 sequence: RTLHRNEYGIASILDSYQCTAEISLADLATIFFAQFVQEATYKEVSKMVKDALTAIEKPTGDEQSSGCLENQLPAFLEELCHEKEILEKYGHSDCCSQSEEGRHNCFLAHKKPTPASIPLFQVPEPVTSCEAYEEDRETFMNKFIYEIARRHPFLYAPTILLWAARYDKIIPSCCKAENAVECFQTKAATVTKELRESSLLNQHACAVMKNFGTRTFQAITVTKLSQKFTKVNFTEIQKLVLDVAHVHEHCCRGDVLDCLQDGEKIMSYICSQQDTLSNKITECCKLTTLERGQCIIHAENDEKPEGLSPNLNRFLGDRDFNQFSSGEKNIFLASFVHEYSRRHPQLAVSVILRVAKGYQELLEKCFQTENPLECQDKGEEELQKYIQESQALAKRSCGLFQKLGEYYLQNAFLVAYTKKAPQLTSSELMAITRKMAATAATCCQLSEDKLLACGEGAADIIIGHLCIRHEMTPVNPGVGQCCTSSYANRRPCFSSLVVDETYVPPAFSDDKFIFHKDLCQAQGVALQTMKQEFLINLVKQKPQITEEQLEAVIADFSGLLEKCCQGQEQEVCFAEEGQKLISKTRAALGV
Nature of the data set: lateral flow aptamer sandwich; AP-273 as both AuNP probe and capture probe; 100 ng/mL AFP detected; LOD 10 ng/mL; Lateral flow strip, 50 uL running buffer (composition not in the material); pads pretreated with 0.05 M Tris-HCl, 2.5% Tween-20, 0.25% Triton X-100; assay pH and temperature not given. The settings on record: label: AuNP (Det-Apt); biotin-streptavidin (Cap-Apt).

B1: AP-273 (Det-Apt / Cap-Apt) (ssDNA)
DNA: GTGACGCTCCTAACGCTGACTCAGGTGCAGTTCTCGACTCGGTCTTGATGTGGGTCCTGTCCGTCCGAACCAATC
modifications: thiol (Det-Apt) or biotin (Cap-Apt), printed at 5' end
Take B1: the binding result is given as “binds”.
